Assay results as given in patent publication US12723255B2, “Herbicide tolerance genes and methods of use thereof” (priority 2014, dated 2026).
Where two headings read alike, the source gives them in different places.

Assays:
[1] = kinetic analysis, non-endpoint assay at 23° C.; format: biochemical; settings: for Vmax Quizalofop / Km / Km 2,4-D / Vmax 2,4-D: standard error in parenthetical
From the text: For the fifth screen, recombinant protein for each of the eleven engineered proteins was produced and purified for an in-depth biochemical analysis. This biochemical analysis included: (1) kinetic analysis (Vmax and Km), (2) activity assays over a range of temperatures, (3) protein melting analysis, (4) activity on additional AOPP herbicides substrates, and (5) mass spectrometry analysis on peptides to confirm identity. The biochemical analyses were also done with purified recombinant wild-type protein and MON-HT55 protein for comparison. For the kinetic analysis, a non-endpoint assay was conducted at 23° C. with either quizalofop-P or 2,4-D as substrate. The recombinant proteins for these assays were produced in bacteria and purified using a 6-His tag fused at the C-terminal end of the protein. Results of the kinetic analysis with either quizalofop-P or 2,4-D as substrate are presented for ten of the engineered proteins, wild-type protein, and MON-HT55 protein in Table 7 (standard error is shown in parenthetical). Vmax is expressed as specific activity, umol herbicide product mg enzyme-1 min-1; Km expressed as mM herbicide substrate. […] The differentiation of the protein kinetics for MON-HTI and MON-HT7 were surprising because there are only four amino acid differences between MON-HT1 and MON-HT7. Specifically, MON-HT1 has the following amino acids at the indicated position: 182; F105; T112; and V273, and MON-HT7 has the following amino acids at the indicated position: L82; V105; S112; and A273.
Kinetic analysis using a non-endpoint assay was conducted at 23° C. with either quizalofop-P or 2,4-D as substrate, as detailed above for purified protein of the wild-type enzyme, MON-HT1, MON-HT13, MON-HT15, and MON-HT17.

[2] = format: physicochemical; settings: buffer; for T1/2, temperature where 50% of the protein was unfolded, Buffer: pH 7.5
Procedure: A protein melting analysis was also conducted. For the protein melting determinations, purified enzyme was added to 96-well microtiter plates in standard storage buffer (30 mM Tris pH7.5, 150 mM NaCl) with or without 50 uM Fe2+ and 1.0 mM aKG. Protein unfolding was then detected with SYPRO® orange protein gel stain (Invitrogen™ catalog #S6651, Life Technologies, Grand Island, NY) in a BioRad CFX96™ Real time PCR machine (BioRad, Hercules, CA) with readings taken between 10° C. to 95° C. in 0.5° C. steps. […] In contrast, 50 uM Fe2+ and 1.0 mM aKG had little effect on the stability of any of the engineered proteins. MON-HT55, MON-HT3, MON-HT4, MON-HT6, and MON-HT10 had melting temperatures in the range of 41° C. to 48° C., which is below the melting temperature of the wild-type enzyme. MON-HT1, MON-HT2, MON-HT5, MON-HT7, MON-HT8, and MON-HT9 had melting temperatures between 58° C. and 67° C., which is 8° C. to 17° C. higher than the wild-type enzyme. For MON-HT7 and MON-HT1, the difference in melting point was 11° C. in buffer without Fe2+ and aKG and 8° C. in buffer with Fe2+ and aKG. This was surprising since there are only four amino acid differences between the two enzymes.
A protein melting analysis was conducted as detailed above. The melting temperatures of MON-HT13, MON-HT15, and MON-HT17 was similar to the melting temperature of MON-HT1 with T1/2 in buffer in the range of 55-58° C., and with T1/2 in buffer plus Fe2+ and aKG in the range of 60-62° C.

[3] = 23° C., purified His-tagged protein
[4] = 23° C., purified His-tagged protein, read-out: Km Quizalofop
[5] = NDB = activity not robust enough for kinetic characterization
[6] = NDB = activity not robust enough for kinetic characterization, read-out: Km 2,4-D

| Molecule | Vmax Quizalofop [1, 3] | Km [1, 4] | Km 2,4-D [1, 5] | Vmax 2,4-D [1, 5] | T1/2, temperature where 50% of the protein was unfolded, Buffer plus Fe2+ and aKG [2] | T1/2, temperature where 50% of the protein was unfolded, Buffer [2] | Vmax for 2,4-D relative to the wild-type enzyme [1] | Vmax with quizalofop-P greater than the wild-type enzyme ([1]; 23° C.) | Km [1, 6] |
| --- | --- | --- | --- | --- | --- | --- | --- | --- | --- |
| MON-HT6: engineered oxygenase protein, amino acid sequence SEQ ID NO:31 (protein) MHAALSPLSQKYRFIDVQPLTGVLGAEITGVTLREPLDDNTWNEILDAFHTYQVIYFPGQAITNEQHIAFSRRFGPVDPVPLLKSIEGYPEVQMIRREANESGRVIGDDWHTDSTFLDAPPAAVVMYAREVPPYGGDTGFLSMYSAWDTLSDTMKATIEGLNVVHSATRVFGSLYQAQNRRFSNTSVKVMDVDAGDRETVHPLVVSHPVTGRRALYCNQVYCQRIEGMTDAESKPLLQFLYEHATRFDFTCRVRWKKDQVLVWDNLCTMHRAVPDYAGKFRYLTRTTVAGDKPSR | 0.39 (−0.03) umol herbicide product mg enzyme-1 min-1 | 100 µM | NDB | NDB | 44 °C | 44 °C |  |  |  |
| MON-HT4: engineered oxygenase protein, amino acid sequence SEQ ID NO:25 (protein) MHAALTPLTNKYRFIDVQPLTGVLGAEITGVDLREPLDDSTWNEILDAFHTYQVIYFPGQAITNEQHIAFSRRFGPVDPVPLLKSIEGYPEVQMIRREANESGRVIGDDWHTDSTFLDAPPAAVVMYAREVPPYGGDTGFLSMYTAWETLSPTMQATIEGLNVVHSATRVFGSLYQAQNRRYSNTSVKVMDVDAGDRETVHPLVVSHPVTGRRALYCNQVYCQRIEGMTDAESKSLLQFLYEHATKFDFTCRVRWKKDQVLVWDNLCTMHRAVPDYAGKFRYLTRTTVAGDKPSR | 0.30 (−0.02) umol herbicide product mg enzyme-1 min-1 | 240 µM | NDB | NDB | 44 °C | 43 °C |  |  |  |
| MON-HT7: engineered oxygenase protein, amino acid sequence SEQ ID NO:34 (protein) MHAALTPLTNKYRFIDVQPLTGVLGAEITGVDLREPLDDSTWNEILDAFHTYQVIYFPGQAITNEQHIAFSRRFGPVDPVPLLKSIEGYPEVQMIRREANESGRVIGDDWHADSTFLDAPPAAVVMRAIEVPEYGGDTGFLSMYSAWETLSPTMQATIEGLNVVHSATKVFGSLYQATNWRFSNTSVKVMDVDAGDRETVHPLVVTHPVTGRRALYCNQVYCQKIQGMTDAESKSLLQFLYEHATKFDFTCRVRWKKDQVLVWDNLCTMHRSVPDYAGKFRYLTRTTVAGDKPSR | 1.94 (−0.12) umol herbicide product mg enzyme-1 min-1 | 330 µM |  | 0.04 (−0.01) umol herbicide product mg enzyme-1 min-1 | 67 °C | 67 °C | about half | approximately 40% | 60 µM |
| MON-HT5: engineered oxygenase protein, amino acid sequence SEQ ID NO:28 (protein) MHAALTPLTNKYRFIDVQPLTGVLGAEITGVDLREPLDDSTWNEILDAFHTYQVIYFPGQAITNEQHIAFSRRFGPVDPVPLLKSIEGYPEVQMIRREANESGRVIGDDWHTDSTFLDAPPAAVVMRAIEVPEYGGDTGFLSMYSAWETLSPTMQATIEGLNVVHSATKVFGSLYQATNWRFSNTSVKVMDVDAGDRETVHPLVVTHPVTGRRALYCNQVYCQKIQGMTDAESKSLLQFLYEHATKFDFTCRVRWKKDQVLVWDNLCTMHRAVPDYAGKFRYLTRTTVAGDKPSR | 0.57 (−0.03) umol herbicide product mg enzyme-1 min-1 | 170 µM | NDB | NDB | 61 °C | 60 °C |  |  |  |
| MON-HT55: engineered oxygenase protein, amino acid sequence SEQ ID NO:11 (protein) MHAALSPLSQRFERIAVQPLTGVLGAEITGVDLREPLDDSTWNEILDAFHTYQVIYFPGQAITNEQHIAFSRRFGPVDPVPLLKSIEGYPEVQMIRREANESGRVIGENWHTDSTFLDAPPAAVVMYAKEIPPYGGDTLFTSMYTAWETLSPTMQATIEGLNVVHSATRVFGSLYQAQNRRFSNTSVKVMDVDAGDRETVHPLVVTHPETGRKGLYVNQVYCQRIEGMSEKESEPLLSFLFAHATKPEFTCRVRWQEGDVLVWDNLCTQHYAVPDYAGKFRYLTRTTVGGVRPAR | 0.44 (−0.04) umol herbicide product mg enzyme-1 min-1 | 320 µM |  | 0.03 (−0.02) umol herbicide product mg enzyme-1 min-1 | 41 °C | 41 °C |  |  | 690 µM |
| MON-HT3: engineered oxygenase protein, amino acid sequence SEQ ID NO:22 (protein) MHAALSPLSQRFERIAVQPLTGVLGAEITGVDLREPLDDSTWNEILDAFHTYQVIYFPGQAITNEQHIAFSRRFGPVDPVPLLKSIEGYPEVQMIRREANESGRVIGDDWHTDSTFLDAPPAAVVMYAKEVPPYGGDTLFASMYTAWETLSPTMQATIEGLNVVHSATRVFGSLYQAQNRRFSNTSVKVMDVDAGDRETVHPLVVTHPETGRKGLYVNQVYCQRIEGMSEKESEPLLSFLFAHATKPEFTCRVRWQEGQVLVWDNLCTQHFAVPDYAGKFRYLTRTTVGGVRPAR | 0.77 (−0.04) umol herbicide product mg enzyme-1 min-1 | 380 µM |  | 0.10 (−0.01) umol herbicide product mg enzyme-1 min-1 | 48 °C | 46 °C |  |  | 270 µM |
